Test results from the supplement of paper PMC12636428.

System: Saccharomyces cerevisiae
Experiment: transcriptional activation domain activity (GFP:mCherry ratio, weighted mean of sorted bins, harmonized to initial dataset scale) (arbitrary fluorescence ratio units); higher = stronger transcriptional activation
Details: beta-estradiol 1 µM; induction time 4 h
In short: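 For this assay, yeast diploids with a GFP reporter carried barcoded protein tiles at URA3, each fused to an estradiol-inducible synthetic transcription factor. Induction was a 1:5 dilution into SC with 1 uM beta-estradiol for 4 hours at 30 °C, followed by sorting into 8 bins by GFP:mCherry ratio and barcode sequencing. Tiles under 50 reads were dropped, and activation activity was calculated as the read-weighted mean of bin median fluorescence, averaged across barcodes and linearly mapped onto the initial dataset scale.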

Point of comparison: “SSFFFFSFFPGPFLLLYLWICLYPFFLFLGHPFSLGFFLLNYLLFSTATLVAG”, “transcriptional activation domain activity” value 36200. Against it:
- NLLQHIIPPFFINHHHHYYSPFHTSYTFFFSTFVYALFFYIIMYLSIFISLLL — higher, 62200
- TQQLEFWLPWQWIQANVFFPCVSYIYFRDWREMMEILLSYRSIEMDGLAFCLV — higher, 69300
- SVKTKAAGKGKPKTTNDKATKSSEPRKAAKVSDDETKPTSNGAASAKAGGERQ — lower, 23600
- ILAGCCLGYACNKWGSITVFKYYGIPWLFLNHWFVMITYLHHTDPTIPHYRGK — higher, 73500
- HFNSVTTTYFKDGQSFYDILKCILPCIVDFLPKNSILVHCICAYLHFRILVGL — higher, 53500
- MASVVCCTELWCLFGLDVCFFPFSLFALPLVLSPSLFPLSSLSFIIFLFFPVS — higher, 54700
- NRVIGVQGKNQEGACYEKLSPSSTSVSVGMDFCSLENFVTAESLPDLLNLFWE — higher, 111000
- NPMTFMGSTQRLAAIRNLRSNPKFLFVHLPNILSFLCIIVGVVWLLLLPLNEY — lower, 33900
- GRPPRSSNESPEAKPAKRARKKAPTEEPEAEVLEDVKPKRGRARVAKKTTADV — lower, 22400
- LGLTNLQLGDEMIGLGAVILIYVIARLILILLPLVALRSLPSGVFVDVNWSRY — higher, 57800
- MCCEAEWKREVVQDHKFDFINVSEFHRTDILTRLKYVWKYILILKAFAVMGLD — higher, 53700
- KQAAEEGDRPKQGGKESGEKENGKAEGSQAREKDRPADGEGKSSDEAGKAKDE — lower, 12500
- MLCMTMTTCMQWLAQFMIVYSLPYMVVSIKSFTFIFFAVCTTFSFIFTLLFVP — higher, 41900
- MGSDPFGGLNLFSTALFPLYLYCLTLDPPNYSNWLIFLSQHFLFSGLFRVLCF — higher, 56600
- KKKSKKRKEKKEKKRRSKSKKKGKKKRRSRSNSGSSSDSSSEDSSSSSSDSSD — higher, 50500
- PATTSPAPRGLTASGQPRKKPGPKPKLKDPNAPEPEKKARKARKVVEAKDPAV — lower, < 6570
- EARNIVGIKNIDLYKGPLFVFWAPMNPSHVGWNGGMHLYAWRCKLLSNLPYHF — lower, 25600
- QITNRILPSPAAVRYSGLIPLLVLVLVLPLFFLFFLFFFFFLFLFLFFLVLLY — higher, 58800
- QYYPGQLLSVKLDLFNTMLARVLDLSHMEILHFIVGPRVNIVGRGYPLRMGVV — lower, 34100
- IGETDAKAKKEKKEKKGKKAQEGAVVAETVDGGEEKKKKKKSKAKGETTADSM — lower, 35100
- ITMCSVTSVGYLGIVRWLVICLGFQPYKLRCVTLVYLTHVMTFFCIIILGIFN — higher, 68800
- NFFSCLSFLFLFIFLFIFLLFHFPYLFSFQFCLLPIFSHFSIDHQKPYPFPSF — higher, 37700
- FRFLLKLLLVHGRWNYIRTCKYTLGTFWKEMLFYLTQALYQRWAGYTGTSLYE — higher, 54800
- KKREKKERSRRHRDDDGERRRRHRSRSRSRDRERRHRHRDRSRSRDRRRDDGR — lower, 35200
- MATDATVNAPASAEATTARRRRSHQKSRLGCRNCKLRRVKCDERRPRCVKCRE — lower, 35500
- ATEKEVKPKKAAAPKKAAAPKEKKEKVEKAEKAPKPKANAAKKVKKTASAPAV — lower, 20200
- LSLVLWCCGLKKSDLAIYLAWTFLVWPGPSPIFCHLSFLLLLLAFFLLPLLSV — higher, 78100
- MGGVFWKWKRGVWMVRFFRVFLQIFLADIGLILLVFWHYIVCLCYFLFFLVGI — higher, 52500
- SSSEEGEDGKGKDKEKHGFRARAKSFTRRKSDAGSRAPSRTGRKRSDSTATAA — lower, 24500
- PVKKLYLLVQYIQDLGRVCGIPVSPLCCVQALQAKLGPIAQACVSARIWARWR — higher, 67400
- ALTLEYFYFECSTPVPDGLLTDPLPPLPKLLVIHFFFYLSQHTIYLLLHILSQ — higher, 60200
- HEDQKLREDQEARLRAVEEFEAVQMGLSVKTGASARVIGRQGGRIVAEEEQHV — lower, 26100
- EDEEASAAHAAPPTTTTAGGRGKKKKGGASRKKENSAAPSKSAKASAPANIPP — lower, 20700
- WLLTFFTVDFLPNRDLRILLANWLNTLIHDPILKKHTDGLGIVRRLVKVAKEC — higher, 48400
- APAAEPVAAATIEEAPKETAEASTATEETAEEKKEEKEKKEKEKKAKLGRRLS — lower, 30700
- MASSTPRVRSLYRRLLRELPTHPSATPNTTTAASRTTPSKYRSTAHQKLSAPS — lower, 31700
- EVKETKEGESQSPAKQEVVQEETVKPSPPQPPQQTKQQKKKKLVLTSGGGGRG — lower, < 6570
- ALIHLPRPQNELVLTLIIRWLVRTTSPLGVIRAAQTHIGAIGYPDVWPTVLFF — higher, 68900
- KKPAAKAKAGPSKANGEAAANGKGEEKEQEKEEAPKEKFKAAKLADPAAPGSK — lower, 31200
- RKRGWSDEDGEGEGAEGGEAQNGKGKGKGRGRRARGKGKGKGKESAEAEKDED — lower, 27200
- MYTYTITFLSFISTIPLHSFLLFEQAYEYLCILLSLTVCLQTQLLLNICLLPF — higher, 73000
